Results on 13 sequences are retold here after the DeepSol protein solubility set.

This data set in a line: soluble on expression in E. coli; label from the status in PepcDB or PDB records.
With “DETIHLERGENLFEIHINKVTFSSEVLQASGDKEPVTFCTYAFYDFELQTTPVVRGLHPEYNFTSQYLVHVNDLFLQYIQKNTITLEVHQAYSTEYETIAACQLKFHEILEKSGRIFCTASLIGTKGDIPNFGTVEYWFRLRV”, the “soluble on expression in E. coli” value is “soluble”.

For the sequence “SDQVFVMGHRYPDMDVIGSSLGVMRIAEMNNRNAYVVVEPGKMSPDVKRLMNEIEEYPNVIKNIVTPQVALENITEKSLLVVVDTHKPSMVINKELLDSATNVVVVDHHRRSEEFVGNPVLVYIEPYASSTAELITELFEYQPDLEQVGKIEATALLSGIVVDTKNFTLRTGSRTFDAASYLRSLGADTILVQQFLKEDI”, the “soluble on expression in E. coli” value was “not soluble”.

Turning to “MGSSHHHHHHGGTGENLYFQGGSGAKKHLKRLYAPKDWMLSKLTGVFAPRPRPGPHKLRECLPLLVIIRNRLKYALNAREGEMILRQGLVHVDNHPRRDGKYPAGFMDVVEIPKTGDRFRLMYDVKGRFALVNLSEAEAQIKLMKVVNLYTATGRVPVAVTHDGHRIRYPDPHTSIGDTIVYNVKEKKCVDLIKNRQGKAVIVTGGANRGRIGEIVKVECHPGAFNIAHLKDASGAEFATRAANIFVIGKDLNNLQVTVPKQQGLRMNVIQEREERLIAAEARKNAPARGARRARK”, the “soluble on expression in E. coli” value is listed as “soluble”.

In the case of “MGSDKIHHHHHHMASLLALDFDGVLCDGLREYFLAAWQAGCDRDPSWPEVPEPSLEDRFRLLRPVIEQGWEMPVLLQALRREVADAEVLADWPQLCDRVLKDWGLTTTELSQAMDRVRDRWIKRDRKEWLQLHHFYPGVAERLAQQTAPWVIISTKDGRFIAELLEQIPNLQPPLAIYGKEVGVPKTQTLIQLQVEFEQIAFVEDRLPALEAAAQLESVDLYLADWGYNTDRDRQQAMTSDRIQLLRLTDFSSGRSPALAASPVES”, the “soluble on expression in E. coli” value was “not soluble”.

In the case of “MDIKIAQESFPILVAENIYHCGYHSEKSYGAASYLIQHSQGNILVDSPRFTPPLVKRIEAMGGIKYMYLTHQDDVADHQKFAEHFQCQRILHTDEISAGTRNVEIQLTGLEPFPLQPDVLIIPVPGHTKGHTVLLYKNKFLFTGDHLAWSENRHQLTAFRDVCWYSWAEQIKSMRRLADYSFDWVLPGHGRRFHADVETMRQQMHKCIELMTDERQPLTFNSLEHHHHHH”, the “soluble on expression in E. coli” value is recorded as “not soluble”.

“MTMHREPGGERYYYTWAWFEGPDDAAWRVTGHHTDSGEQYRLDWNLAERSLCVTDSLGRTRCHWWDAQGLVTAYRDEAGQMTTFRWSDEERLLLGMTDAQGGKWRYVYDRLGHLTETHDPLGRVEQTQWHPVWHQPETEVDAAGAAWRYEYDERGNLQAVSDPLHQRTVYGYDRHGQVVRITDARGGDKYLQWNEDGQLMRHTDCSGSQTAWFYDERTRLERVTDAESNSTRYSYDGNGHLTEVMFADGRTERYQPDAAGRLVKYTSPAGQITRWQRDGQGRVRRQTDATGRRTAYEYDAYGRLTTLTNENGESYRFRYDVLDRLTEQTDPGGSRRAYGYNALNAVTAVIYGGERGGEIRHGLERDAAGRLTAKTTPETRTEYRYDAADRLLEIRRRRHDAAEGGEPEVIRFSYDSAGNLLSEETAQGVLQHRYDVQGNRTETQMPDGRTLRYLYYGSGHLQQINLGRDVISEFTRDHLHREVQRSQGRLDTRRMYDRTGRLTRKPTCKGMRGVVPETFIDREYAYSGQDELLKKRHSRQGVTDYFYDTTGRITACRNEAYLDSWQYDAAANLLDRRQGETAQAGAGSVVPFNRITSYRGLHYRYDEYGRVVEKRGRNGTQHYRWDAEHRLTEVAVIRGSTVRRYGYVYDAPGRRVEKHELDAEGKPYNRTTFLWDGMRLAQECRLGRSSSLYIYSDQGSHEPLARVDRAAPGEADEVLYYHTDVNGAPEEMTDGRGNIVWEAGYQVWGNLTHEKETRPVQQNLRFQGQYLDRETGLHYNLYRFYDPDIGKFISGDPISIRGGINLYQYAPNPIKWIDPLGLYNGEGQRELGKYHVFHEHNLDITEYGLSDAEHFSRGNQAIYERMKNDPAFRREMQTKYPGVVEHVQPSSGGKFSTESPPGLTWHHENKPGVLSLVDRLDHKTYLEHHHHHH”: the “soluble on expression in E. coli” value is given as “not soluble”.

Take “QYFTGGLSLEPSNQAGFSQSQSASNTAAQDENAQFVAAILGTTETVWNQLLQGQYVEPKLVLYRNMTSTGCGMGQAQSGPFYCPADGKVYIDLSFLEELKKLGASGDFAFAYVIAHEVGHHVQNLLGTSTKVRQAQQAAGKAQANQLSVALELQADCYAGVWGHYVDRQLNLLEPGDVEEGIAAASAVGDDRLQKMAGRAVQPEAFTHGSSADRVKWFNIGFASGKPASCNTF”: the “soluble on expression in E. coli” value is recorded as “not soluble”.

In the case of “MLLNLFNEMRAAKVPVSLRELLDLINALKQRVIFADIDEFYFLARTILVKDERHFDKFDRAFGAYFNGLEKLDDHLQALIPEDWLRKEFERSLSDEERAQIQSLGGLDKLIDEFKKRLEEQKERHAGGNKWIGTGGTSPFGSGGYNPEGIRVGDAGERKGKAVKVWDQREYKNLDDQVDLGTRNIKVALRRLRKFARQGAADELDIDGTIDHTARDAGLLNIQMRPERRNTIKLLLLFDIGGSMDSHVKVCEELFSACKTEFKHMEYFYFHNFIYETVWKNNLRRGSERTATQDLLHKYGADYKVIFIGDASMAPYEITQPGGSVEHWNEEAGYVWMQRFMAKFKKVIWINPYPKDAWDYTTSTHIVRDLIEQHMYPLTLQGLEDGMRYLA”, the “soluble on expression in E. coli” value is given as “not soluble”.

For “MLEKSFLKSKQLFLCGLGVLMLQACTCPNTSQRNSFLQDVPYWMLQNRSEYITQGVDSSHIVDGKKTEEIEKIATKRATIRVAQNIVHKLKEAYLSKTNRIKQKITNEMFIQMTQPIYDSLMNVDRLGIYINPNNEEVFALVRARGFDKDALSEGLHKMSLDNQAVSILVAKVEEIFKDSVNYGDVKVPIAM”, the “soluble on expression in E. coli” value is “not soluble”.

Take “MKVSLAGQTVDVKKILNEIPKRTVTAALLEGGEIVAVEEADDEHAERKLVRRHDVEGKVVFVTARPCLYCARELAEAGVAGVVYLGRGRGLGPYYLARSGVEVVEVHPDEPLGYDPVDRLDVLLTFGGNPYLTEEDVAARVYCLLTGRGFDADIAPAPENLSGRVEIMVTRGDPDEAVELLKEELPVFRIRRFLISGEFDRDELRERILEDIEPRILDPFAVRARIARAGAFSSSREAEVFIGDVLTSVGREVNLNDPRTVVTVDVLGPRVSVGVEKR”: the “soluble on expression in E. coli” value was “soluble”.

With “MSLASIRTRIMILSDTHAQRFQPGLEPLEPVDLVIHCGDLTNNSTLRDYREAIHLLDSIKAPLKIVIAGNHDFSLDDKAYRRKIRETCRINQENLSGAIKAEYGQVGEAQQILLEAVAKGITFLSEGPHQLQLPSNSVLELYVSPYTPTHNCPGWGFQYDGIHDFNIKQGTDIVITHGPPLGIMDLTSNNERIGCPQLFAAVARAQPRVHCFGHVHEGWGAKLVSWRPNEGHHHHHH”, the “soluble on expression in E. coli” value is listed as “not soluble”.

On to “MTKKVVVHQIVGHRFLGVNEQGDKVMIDGDQPSTGPRPMELLLMALGACTAYDVVDIMRKKKQPLARYRVEVEGERAETHPRRYTRITVTHIASGPGVTLEALERAVHLSHTKYCSVSATLNAEITTRVVLEPWEGEEGEG”, for which the “soluble on expression in E. coli” value is “soluble”.

As to “MGSDKIHHHHHHMVKLFREKKDMGSPKIQNFKRQTVLHKGQRTRLPATYIAPEDVSIWDIIRPNLGKDFSRFTVPVFMNEPLSFLQRLSENVQYNYLLEKAAKCSDDMERIEFYEFRFFFNWKKLKHQMKLSNSAHKTGFTFANSINYVAAFALATVSANHKRLSKPFNPLLLETFELERNGVRFLAEQVSHHPPISAVYAESDEFTVEGTVEPTLGFWMTKLLANPHAHLKLTFKKTGETYSWSAPKCAIYNVIMGKMYMNFTSHMKIESSGTYDAVFSFDNKGYYNHKGGDVHVEGHIFEGKNKIKALYGNWTLFLASCDNEDFKHHRKEYLRMFNETVSEKDQGPVVPGSKILWVSNQIPKLFDDQFHFTNFTLSLNEMYPGMSDTVAPTDSRRRKDMKALEDGKNDEAEEFKHKYEEEQRERRTTKTGDVPMWFAKNDEGHWAYKGGYWDRDYSNCLELFESLENSSTNSSNSSISSVD”, the “soluble on expression in E. coli” value was “not soluble”.
